Consider 7 molecules from patent US20220010008A1 (SHANGHAI PHARMAEXPLORER, published 2022).

Where a chain is given by its changes, count along the chain named.

Assay [1] deals with recombinant human IL-5 protein with His tag (human, UniProt P05113 20-134, limits assumed, biotin-labeled in the ELISA and in the receptor blocking assay (site not stated)). As to the kind of experiment: cell-based or functional assay.
The target of assay [2] is recombinant human IL-5 protein (human, UniProt P05113 20-134, limits assumed). Briefly: cell-based or functional assay.
The target in assay [3] is T1, recombinant monkey IL-5 (monkey (cynomolgus macaques)). Briefly: ELISA, monkey IL-5, Ab 0.0002 nM. The protocol:
(§1) The titer of antibody reacting with human IL-5 protein and the cross reaction with mouse and monkey IL-5 protein were detected and analyzed by enzyme-linked immunosorbent assay (ELISA). Streptavidin was diluted with PBS to a final concentration of 1.0 μg/ml, and then added to a 96-well enzyme-labeled plate as 100 microliters per well. The plate was incubated at 4° C. overnight. On the second day, the plate was washed twice with washing solution (PBS+0.01% Tween20). The blocking solution (PBS+0.05% Tween20+2% BSA) was added for blocking at 37° C. for 1-2 hours. Then the blocking solution was discarded. The biotin-labeled human IL-5 was diluted with sample diluent (PBS+0.05% Tween20+0.2% BSA) to 0.5 μg/ml, and added to an enzyme-labeled plate at 50-100 microliters per well, and incubated at 37° C. for 1 hour. The plate was washed with plate washing solution (PBS+0.05% Tween 20) for 2-3 times. 50-100 microliters of antibody samples to be tested were added to each well, and incubated at 37° C. for 1 hour. Then the plate was washed with plate washing solution (PBS+0.05% Tween20) for 2-3 times. […] The value of O.D. 450 nm was read by ELISA plate reader (SpectraMax M5e, Molecular Device).
(§2) The titer of chimeric antibody reacting with human IL-5 protein and the cross reaction with mouse and monkey IL-5 protein were detected and analyzed by enzyme-linked immunosorbent assay (ELISA). […]
On the technique in general: In an ELISA, binding on a coated surface is turned into a signal by an enzyme label.

Assay [4] has as its target T1, recombinant monkey IL-5. As to the kind of experiment: ELISA, monkey IL-5, Ab 0.0043 nM. The protocol: as §1, §2
For assay [5], the target named is T2, mouse IL-5 (mouse, UniProt P04401 21-133).
T2 sequence (looked up): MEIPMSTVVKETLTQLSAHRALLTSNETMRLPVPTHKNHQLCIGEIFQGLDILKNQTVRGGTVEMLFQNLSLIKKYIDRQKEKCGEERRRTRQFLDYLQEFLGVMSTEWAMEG
As to the kind of experiment: ELISA, mouse IL-5, Ab 0.0002 nM. The protocol: as §1, §2

The target in assay [6] is T2, mouse IL-5. Briefly: ELISA, mouse IL-5, Ab 0.0043 nM. The procedure:
as §1, §2

For assay [7], the target named is T3, mouse IL-5 (mouse, UniProt P04401 21-133).
T3 construct: Source and construct of the mouse IL-5 are not described; also called mouse IL-5 protein
T3 sequence (looked up): T2 sequence (looked up)
As to the kind of experiment: ELISA on mouse IL-5; antibody 0.0002 nM. The procedure: The titer of antibody reacting with human IL-5 protein and the cross reaction with mouse and monkey IL-5 protein were detected and analyzed by enzyme-linked immunosorbent assay (ELISA). Streptavidin was diluted with PBS to a final concentration of 1.0 μg/ml, and then added to a 96-well enzyme-labeled plate as 100 microliters per well. The plate was incubated at 4° C. overnight. On the second day, the plate was washed twice with washing solution (PBS+0.01% Tween20). The blocking solution (PBS+0.05% Tween20+2% BSA) was added for blocking at 37° C. for 1-2 hours. Then the blocking solution was discarded. The biotin-labeled human IL-5 was diluted with sample diluent (PBS+0.05% Tween20+0.2% BSA) to 0.5 μg/ml, and added to an enzyme-labeled plate at 50-100 microliters per well, and incubated at 37° C. for 1 hour. The plate was washed with plate washing solution (PBS+0.05% Tween 20) for 2-3 times. 50-100 microliters of antibody samples to be tested were added to each well, and incubated at 37° C. for 1 hour. Then the plate was washed with plate washing solution (PBS+0.05% Tween20) for 2-3 times. The horseradish peroxidase labeled secondary antibody against human or mouse IgG was added, and reacted at 37° C. for 1 hour. The plate was washed with plate washing solution (PBS+0.05% Tween 20) for 2-3 times. […] The value of O.D. 450 nm was read by ELISA plate reader (SpectraMax M5e, Molecular Device).

B1: 147D7H2 (as tested in Example 9, format not stated) (antibody, V domains shown)
VH: EVQLQQSGAELVKPGASVKLSCTASGFNIKDYFIHWVKQRTEQGLEWIGRIDTEDGETKYAPKFQGKATITIDTSSNTAYLYFSSLTSEDTAMYYCARYGNYVAMDYWGQGTSVTVSS
VL: QIVLTQSPALMSASPGEKVTMTCSASSSVSYMFWYQQKPSSSPKPWIYLTSKLASGVPARFSGSGSGTSYSLTISSVEAEDAATYYCQQWNSNPYTFGGGTKLEIK
As for B1, the “TF1 (IC50), TF1 proliferation induced by IL-5” value (shortened to “TF1 (IC50)”) in assay [1] was roughly 1 pM.

B2: 147D7H2 (as tested in Example 9; murine or chimeric form not stated) (antibody, V domains shown)
VH: B1 VH
VL: B1 VL
As to B2, in assay [2], the “TF1 (IC50, nM)” value is 0.002 nM.

B3: 151G3B11 (as tested in Example 9, format not stated) (antibody, V domains shown)
VH: EVHLQQSGAELVKPGASVKLSCTASGFNIKDYYMHWVKQRTEQGLEWIGRIDPEDGETKYAPKFQGQATITADTSSNTANLQLSSLTSEDTAVYYCARYGNFPDYWGPGTTLTVSS
VL: B1 VL with F33Y, S40R, V77M
In the case of B3, the “TF1 (IC50)” value in assay [1] was roughly 1 pM.

B4: 147D7H2 mouse-human chimeric antibody (antibody, V domains shown)
VH: B1 VH
VL: B1 VL
With B4, the OD450 nm turned out to be 0.093 OD450 nm in the assay with recombinant monkey IL-5 [3] and 0.092 OD450 nm with recombinant monkey IL-5 [4].

B5: 102A2E11B6 (as tested in Example 9, format not stated) (antibody, V domains shown)
VH: QVQLRQSGPGLVQPSQSLSITCTVSGFSLTSYGVHWVRQSPGKGLEWLGVIWSGGSTDYNAVFMSRLSISKDSSKSQVFFKMNSLQTDDTAIYYCARNRYVLDYWGQGTSVTVSS
VL: DIVMTQSPSSLSVSAGERVTMRCKSSQSLLTSGDQKNHLAWYQQKPGQPPKLLIYGASTRESGVPDRFTGSGSGTDFTLTITSVQAEDLAVYYCQNDHSFPLTFGAGTKLELK
On to B5, for which the “TF1 (IC50)” value in assay [1] is roughly 1 pM.

B6: 102A2E11B6 mouse-human chimeric antibody (antibody, V domains shown)
VH: B5 VH
VL: B5 VL
Turning to B6, the OD450 nm with mouse IL-5 [5] was determined as 0.046 OD450 nm; with mouse IL-5 [6], 0.069 OD450 nm.

B7: 69F2F3 (murine hybridoma antibody) (antibody, V domains shown)
VH: QVQLKQSGPGLVQPSQSLSITCTVSGFSLSNYGVHWVRQSPGKGLEWLGVIWSGGSTDYNAAFKSRLSITKDNSKSQVVFRMNSLQTDDTATYYCARNKDFLDYWGQGTKFTVSS
VL: DIVMTQSPSSLTVTAGEKVTMTCKSSQGLLNSGNQKNYLTWYQQKPGQPPKLLIYWASTRESGVPDRFTGSGSGTDFTLTISSVQAEDLAVYYCQNDYHFPLTFGAGTKLELK
notes: Mouse monoclonal antibody from hybridoma, purified on Protein G; also called lead antibody; antibody number 3
With B7, in the assay with mouse IL-5 [7], the OD450 nm worked out at 0.049.
